Assay results as given in patent US9192657B2.

Molecular target: T1, PAR-1 N-terminal tail peptide (TR33-62) (artificial)
T1 sequence (peptide): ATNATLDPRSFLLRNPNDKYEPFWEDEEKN

PAR-1 peptide (TR33-62) cleavage (% rwt-APC), catalytic efficiency by HPLC: 88 % rwt-APC
B1: KKK191-193AAA-APC (enzyme)
chain: ANSFLEELRHSSLERECIEEICDFEEAKEIFQNVDDTLAFWSKHVDGDQCLVLPLEHPCASLCCGHGTCIDGIGSFSCDCRSGWEGRFCQREVSFLNCSLDNGGCTHYCLEEVGWRRCSCAPGYKLGDDLLQCHPAVKFPCGRPWKRMEKKRSHLKRDTEDQEDQVDPRLIDGKMTRRGDSPWQVVLLDSAAALACGAVLIHPSWVLTAAHCMDESKKLLVRLGEYDLRRWEKWELDLDIKEVFVHPNYSKSTTDNDIALLHLAQPATLSQTIVPICLPDSGLAERELNQAGQETLVTGWGYHSSREKEAKRNRTFVLNFIKIPVVPHNECSEVMSNMVSENMLCAGILGDRQDACEGDSGGPMVASFHGTWFLVGLVSWGEGCGLLHNYGVYTKVSRYLDWIHGHIRDKEAPQKSWAP
